The source of these data is patent publication US20220089695A1.

Assay [1] deals with SARS-CoV-2 Spike (S) protein, recombinant, construct not stated at the place (SARS-CoV-2) (UniProt P0DTC2).
In assay [2] the target is C-type lectin domain family 10 member A expressed on cells (human) (UniProt Q8IUN9).
In assay [3] the target is Tweety Family Member 2 expressed on cells (human) (UniProt Q9BSA4).
The target of assay [4] is Asialoglycoprotein Receptor 1 expressed on cells (human) (UniProt P07306).
Asialoglycoprotein Receptor 1 expressed on cells (human), sequence (P07306 whole entry): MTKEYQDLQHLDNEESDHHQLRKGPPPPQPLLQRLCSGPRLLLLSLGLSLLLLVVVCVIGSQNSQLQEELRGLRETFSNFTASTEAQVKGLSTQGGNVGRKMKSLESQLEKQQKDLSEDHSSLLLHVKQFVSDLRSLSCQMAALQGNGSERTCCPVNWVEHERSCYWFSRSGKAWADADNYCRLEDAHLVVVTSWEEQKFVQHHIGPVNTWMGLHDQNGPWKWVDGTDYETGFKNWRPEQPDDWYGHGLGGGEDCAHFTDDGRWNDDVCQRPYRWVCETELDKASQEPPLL
Assay [5] has as its target Liver/lymph node-specific intercellular adhesion molecule-3-grabbing integrin expressed on cells (human) (UniProt Q9H2X3).
The target of assay [6] is Liver and lymph node sinusoidal endothelial cell C-type lectin expressed on cells (human) (UniProt Q6UXB4).
Liver and lymph node sinusoidal endothelial cell C-type lectin expressed on cells (human), sequence (Q6UXB4 whole entry): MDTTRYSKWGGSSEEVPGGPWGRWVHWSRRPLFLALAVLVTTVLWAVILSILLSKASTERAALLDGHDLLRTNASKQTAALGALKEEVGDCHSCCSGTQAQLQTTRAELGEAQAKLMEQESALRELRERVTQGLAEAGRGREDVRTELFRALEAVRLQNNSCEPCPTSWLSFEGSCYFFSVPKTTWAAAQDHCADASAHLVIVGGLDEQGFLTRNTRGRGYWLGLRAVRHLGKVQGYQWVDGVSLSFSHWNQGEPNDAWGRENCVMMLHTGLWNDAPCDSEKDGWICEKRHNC
Assay [7] deals with Dendritic cell-specific intercellular adhesion molecule-3-grabbing nonintegrin expressed on cells (human) (UniProt Q9NNX6).
Dendritic cell-specific intercellular adhesion molecule-3-grabbing nonintegrin expressed on cells (human), sequence (Q9NNX6 whole entry): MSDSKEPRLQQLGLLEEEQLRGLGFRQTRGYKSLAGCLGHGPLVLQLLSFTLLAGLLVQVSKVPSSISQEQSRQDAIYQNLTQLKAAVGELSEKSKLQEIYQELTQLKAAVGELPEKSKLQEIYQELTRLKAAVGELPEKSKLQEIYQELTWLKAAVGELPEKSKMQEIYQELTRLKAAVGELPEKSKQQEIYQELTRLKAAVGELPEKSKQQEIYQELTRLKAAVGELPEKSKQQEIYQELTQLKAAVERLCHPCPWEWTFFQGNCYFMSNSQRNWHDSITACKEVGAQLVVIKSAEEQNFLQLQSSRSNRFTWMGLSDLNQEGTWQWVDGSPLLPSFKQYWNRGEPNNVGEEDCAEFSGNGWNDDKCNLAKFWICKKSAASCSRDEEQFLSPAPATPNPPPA

C-type lectin domain family 10 member A expressed on cells (human), sequence (Q8IUN9 whole entry, the tested form may be a part): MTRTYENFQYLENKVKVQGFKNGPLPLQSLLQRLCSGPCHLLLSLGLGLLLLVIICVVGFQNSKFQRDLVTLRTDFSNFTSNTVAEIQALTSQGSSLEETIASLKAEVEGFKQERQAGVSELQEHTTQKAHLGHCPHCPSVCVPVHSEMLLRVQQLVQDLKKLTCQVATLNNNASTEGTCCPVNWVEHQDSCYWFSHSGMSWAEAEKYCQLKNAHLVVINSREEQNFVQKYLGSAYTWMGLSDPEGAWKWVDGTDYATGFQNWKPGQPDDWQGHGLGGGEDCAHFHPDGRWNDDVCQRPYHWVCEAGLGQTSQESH
Liver/lymph node-specific intercellular adhesion molecule-3-grabbing integrin expressed on cells (human), sequence (Q9H2X3 whole entry): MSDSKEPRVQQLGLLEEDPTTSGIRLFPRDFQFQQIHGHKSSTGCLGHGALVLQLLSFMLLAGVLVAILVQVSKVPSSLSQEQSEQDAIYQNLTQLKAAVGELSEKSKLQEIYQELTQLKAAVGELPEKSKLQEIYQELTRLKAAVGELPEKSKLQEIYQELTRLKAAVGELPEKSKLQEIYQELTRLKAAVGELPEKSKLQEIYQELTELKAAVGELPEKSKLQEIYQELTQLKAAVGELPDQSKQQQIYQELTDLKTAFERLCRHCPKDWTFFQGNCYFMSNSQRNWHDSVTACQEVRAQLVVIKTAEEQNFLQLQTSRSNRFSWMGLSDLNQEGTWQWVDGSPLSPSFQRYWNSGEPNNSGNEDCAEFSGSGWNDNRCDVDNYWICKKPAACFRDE
Tweety Family Member 2 expressed on cells (human), sequence (Q9BSA4 whole entry): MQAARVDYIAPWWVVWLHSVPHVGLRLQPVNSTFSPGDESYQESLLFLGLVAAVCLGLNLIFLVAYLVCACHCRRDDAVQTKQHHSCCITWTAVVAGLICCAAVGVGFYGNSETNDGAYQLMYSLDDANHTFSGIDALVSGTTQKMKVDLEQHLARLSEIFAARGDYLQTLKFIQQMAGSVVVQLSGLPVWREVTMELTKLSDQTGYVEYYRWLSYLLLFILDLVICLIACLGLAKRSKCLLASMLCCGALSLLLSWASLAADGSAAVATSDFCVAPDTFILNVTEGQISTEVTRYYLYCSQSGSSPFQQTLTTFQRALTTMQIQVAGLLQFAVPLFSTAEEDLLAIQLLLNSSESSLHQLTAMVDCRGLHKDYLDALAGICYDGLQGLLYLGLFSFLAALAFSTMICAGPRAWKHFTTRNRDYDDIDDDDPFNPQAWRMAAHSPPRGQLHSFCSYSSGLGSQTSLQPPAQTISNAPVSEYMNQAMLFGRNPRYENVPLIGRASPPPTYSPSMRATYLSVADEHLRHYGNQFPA

ACE2-Fc + L-SIGN-Fc + ASGR1-Fc: in assay [1], the blocking of S protein binding (heat-map cell) worked out at 33.7%.
Same read-out and setting: the result for Fc Control reads 0%.
On to “SARS-CoV-2 S protein displayed on lentiviral (HIV-GFP) pseudovirus (from UniProt P0DTC2 14-1273)”, for which the cells in the Anti-SARS-CoV-2 S protein (APC) gate was 3.2% in assay [2], 1.61% in assay [3] and 47.6% in assay [4].
As to “SARS-CoV-2 S protein displayed on lentiviral (HIV-GFP) pseudovirus (from UniProt P0DTC2 14-1273) (other; other documents disagree on this pair)”, the values for the cells in the Anti-SARS-CoV-2 S protein (APC) gate in assay [5], in assay [6] and in assay [7] were 31.7%, 1.7% and 20.8%, respectively.
